The numbers were not newly measured in paper PMC3750086, which cites them from elsewhere.

pKd: −log10 of the molar value.

The target of series [1] is PDL1 (Homo sapiens) (UniProt Q9NZQ7).
The target in series [2] is CD28 (Homo sapiens) (UniProt P10747).

Sequence of UniProt Q9NZQ7 (Q9NZQ7 19-238): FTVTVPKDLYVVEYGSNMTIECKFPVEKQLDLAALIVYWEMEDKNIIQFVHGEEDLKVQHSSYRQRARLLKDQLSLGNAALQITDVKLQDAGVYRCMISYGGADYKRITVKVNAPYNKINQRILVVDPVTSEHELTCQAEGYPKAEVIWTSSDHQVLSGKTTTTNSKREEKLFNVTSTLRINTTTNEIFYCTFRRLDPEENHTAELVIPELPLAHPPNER

For orientation: pKd means the negative decadic logarithm of the Kd, by convention in mol/L. For CD80 (from UniProt P33681), the values for the pKd in series [1] and in series [2] were 5.85 and 5.40, respectively.
